# Laboratory results reported in the supplement of paper PMC12042874.
# ± gives the uncertainty stated by the source.
# Assay: amyloid nucleation score (Sup35N fusion, yeast selection) (log enrichment); library NNK1; higher = more nucleation; inactive = no reads after selection
# Procedure, shortened: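 Random libraries were run with three technical output replicates. In each, psi-negative yeast expressing Sup35N fused to peptides of 20 random codons were induced 24 hours with 100 μM copper sulfate and grown 7 days at 30°C on medium lacking adenine and uracil, and input and output plasmid inserts were Illumina-sequenced. The nucleation score is the DiMSum log enrichment of output over input reads, centred on the mode score of non-aggregating sequences, and sequences under 100 input reads were excluded.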
row,Substance,amyloid nucleation score
1,CGVEA,-0.542 ± 0.76
2,SVRGSYCYASLVCSDFL,-1.12 ± 0.84
3,RFFPLVLGSLKYM,0.827 ± 0.7
4,PLCEKSGCSLNFDEERQTLW,1.43 ± 0.51
5,YPTYCLGCMS,0.672 ± 0.51
6,GEQGNPIIESSREFSSVEHN,4.33 ± 0.078
7,YSSLRGWLC,inactive
8,FLHRM,0.062 ± 0.75
9,CDQASL,inactive
10,ALNYSRGMTMVGVCLPHKLT,-0.147 ± 0.3
11,FIWSLVGAQAQSTNRVHHLS,1.3 ± 0.67
12,FLMDNDKIHYGYISSVCTSY,inactive
13,AMKLVPLNLYFKDNKNQSSC,-0.033 ± 0.31
14,LHVRVCMYADMLSFYGSFAY,2.68 ± 0.085
15,SFLKVGFL,-0.399 ± 1.1
16,KLFSK,inactive
17,RIGLWCACMCRATTPVRGIE,-0.317 ± 0.46
18,FQGRNYECIFVDFLRSQKGV,0.292 ± 1.2
19,TTCSVVRDFYSLIFCTKCPY,4.03 ± 0.063
20,INFDRNFF,-0.54 ± 0.31
21,KTRNCTNFWLQRGTW,-0.28 ± 0.76
22,LWKNVVWTTGPIIASWVSDL,2.04 ± 0.11
23,GTRVR,1.51 ± 0.48
24,YRMIIVGLCFMVVHMAASRK,0.514 ± 0.69
25,YMLSLSPPRRC,0.25 ± 0.33

row,Substance,amyloid nucleation score
1,LYSGFNRSKRSAVNSICAH,0.368 ± 0.18
2,ICFNFYITYSASDALSRTCY,8.287 ± 0.047
3,MDQFDLGSYSCASFQDTPAL,1.39 ± 0.18
4,NSMANREYGYIELDWV,inactive
5,MDRNFSILTF,inactive
6,GSLLLMGRTMDVYQNRHFFH,0.651 ± 0.28
7,LGFCTLFISMEDQLCVLQIL,-0.546 ± 1.2
8,LFWNFRRTGAGLAAGLVVGL,-0.885 ± 1.4
9,SGMYRTNTAMFSFYDTTIVI,-0.091 ± 0.84
10,MLLSH,4.34 ± 0.056
11,HTLTPAHPTNGVVT,-0.871 ± 1.3
12,MVRWFWVVGHQVFTYVRLWR,-0.076 ± 0.74
13,NMEITYLSVFVAVYVHLHFF,-0.728 ± 0.88
14,SQLNCIDRTMGYDDRMEIRS,0.014 ± 0.42
15,GYSGGKLLVGGTYTRIV,0.243 ± 0.43
16,FFHFTVSGMPGYSRSY,2.73 ± 0.17
17,KGYLLRWLGEVYFVNYGSNS,-0.585 ± 0.84
18,HPSSKLSRMCLD,0.717 ± 0.93
19,YGNKTYFAPR,0.557 ± 0.51
20,YVSADLGMYTVDGAEFYCEN,0.106 ± 0.43
21,ALRAHHSL,0.498 ± 0.56
22,HFNYNNTSMFSLTHSWHGIM,4.71 ± 0.089
23,NYTNCTSTDRI,0.907 ± 0.56
24,EFYSVTIGNWAMNRTHWRVN,0.461 ± 0.69
25,CRKVITRVGSVTVTGGFYLI,-0.374 ± 0.67

row,Substance,amyloid nucleation score
1,THSIF,inactive
2,ESDPGCPVAVIKGPCT,0.225 ± 0.8
3,LPGMVSL,0.33 ± 0.42
4,DYFIKWFIYRPLTS,-0.504 ± 0.6
5,CDRVGSKEQSFDKWPLWFAP,-1.18 ± 1.9
6,WREYRLWDEG,-0.208 ± 0.36
7,TKMVWASALWAHSPVMY,0.724 ± 1.2
8,DRDASSLGFIFFFGCLEGLT,-0.93 ± 0.76
9,FRTHRPTIFHFIGMRLRTLA,0.399 ± 0.91
10,LRDRCTFG,-0.755 ± 0.5
11,VKTINFISQLSCWCKRPFRK,8.673 ± 0.06
12,GIYNLHQFTCLFEAAAIACD,-0.478 ± 0.79
13,ATSKRIQWLMRERAPPTRYP,0.203 ± 1.5
14,DCWRRYYSSLLITVGGLFYK,-0.014 ± 0.34
15,YMVSCYLAGNQDSVVCSVKW,2.23 ± 0.18
16,RLYKN,0.161 ± 0.9
17,QIWTFRGRVLVGHTSREVVG,0.122 ± 0.24
18,QRSLMDAPMGKPRESNLLLV,1.1 ± 0.57
19,LFMFRLKYVIHWDIG,0.911 ± 0.54
20,GLLGGIGRRRTMG,-0.643 ± 0.46
21,RLSLAESAPLVNFVSTALGK,-0.168 ± 0.93
22,PVVGRARRYRREAAENVVLD,0.943 ± 0.6
23,FFGFMILNYKFSK,inactive
24,LRCLANVDSIICNSV,-0.071 ± 0.9
25,LCSIKNSLMECLWYDL,-0.177 ± 0.33

row,Substance,amyloid nucleation score
1,TTCGCKMHVSAHR,0.425 ± 1.1
2,SYKLAVIRKM,-0.28 ± 0.24
3,FLAYLPSEKC,-0.267 ± 0.44
4,YCLQRQRRKGRSRSSMPEDE,1.52 ± 0.52
5,NNCAFYSLRWRKLWLGGMHV,8.364 ± 0.056
6,SLCTFLGFWGHVFSLRVNRL,-0.156 ± 1.1
7,RCVMFQVRHSNIGRKRDYGI,0.389 ± 1.2
8,NPGAYKYHSLSYTSRGGMFV,0.486 ± 0.38
9,GKTRK,-0.782 ± 1.7
10,GPDINSCRSCFSWYIVWFLV,0.318 ± 0.7
11,TVEYNRPFCRFIFCGSGYRH,-1.2 ± 0.92
12,WTFGLGSGVSGVSLERGPLG,-0.622 ± 1.7
13,VTSWQIDKLPWASANSLFWL,0.334 ± 0.27
14,WNSSFLHRLWEGSNLSARCC,inactive
15,DCSFRCMYAIMLYVLCLSHN,0.422 ± 0.35
16,GESCLDSRFRNDDNR,0.09 ± 0.33
17,TDYIHLSIMIDFLGFTFQDR,1.46 ± 0.43
18,CRNTLPGP,-0.398 ± 0.44
19,KDLEPVSARMFLLLLICLA,0.057 ± 0.52
20,TSPTYAYCYCLSTNRRQKCL,-0.957 ± 1.1
21,FSSCRPMIYLRCTEYNG,-0.41 ± 1.9
22,YTTIYLVIFSFC,6.48 ± 0.068
23,RFDYGGIESGVAGCVRVRDY,0.473 ± 0.67
24,YYNRFILRSWEGSSMGLWSC,-0.582 ± 0.36
25,YCIGYGKICSYMRIVSSGLQ,0.901 ± 0.24

row,Substance,amyloid nucleation score
1,LELDRFDNFRYGSAPRCYLP,inactive
2,SAGGHSLSVTYWSGCSLRTV,0.272 ± 0.23
3,VLVRAWTLDCCLLFVMMVVS,0.558 ± 0.46
4,QVLSHSKHNIVLDYHLETCG,1.84 ± 0.38
5,GQSYRRNIMCTSFLWLGNRN,1.05 ± 0.53
6,KLNLKFYAFYNM,5.49 ± 0.073
7,LRNAMVMSLYN,-0.423 ± 0.72
8,FSVNILQQFIMGQSRICVGA,-0.044 ± 0.38
9,YIDSLISLITDSCMNHRDGR,-0.29 ± 1.1
10,IGDDLLGVFLYIETNSTPVF,0.655 ± 0.74
11,ENIALIYLECVFKVGSRCFE,0.198 ± 0.24
12,ASRYGSLVPRVVKHLMTRGN,-1 ± 0.67
13,FLMYFQNRV,0.624 ± 0.33
14,RSNTRCAFKNFIFSMTCAFK,0.823 ± 0.5
15,SSMILSNGVFNCQMGFLACK,0.461 ± 0.43
16,KCNVTQFVRSLYIRMSMLLH,0.534 ± 0.39
17,DSFQGRS,0.255 ± 0.47
18,NFSHHSIYGHVPRPEEQNPM,0.481 ± 1
19,VVVSLK,-0.916 ± 0.86
20,YVPMRETGCRDSTYIEWFWY,-0.057 ± 0.24
21,MVHMCWLTME,0.454 ± 0.25
22,GWHLHFC,0.492 ± 0.22
23,VYSQINSRHWEFMDLELSLG,0.147 ± 0.93
24,VWVHKAY,-0.021 ± 1.2
25,INGPCLLTYLPLAEVGCCLV,0.25 ± 0.55

row,Substance,amyloid nucleation score
1,SLRFQSYRAWSMGWKLDDSC,0.821 ± 1.1
2,LLSTHVMQVLPMNQAKNILK,-0.935 ± 0.29
3,TFVLV,0.332 ± 0.74
4,GKMLFRGSGIRPCGALIGVK,-0.561 ± 1.1
5,QDLTEWTYSLAPFMVFHTRP,-0.519 ± 1.2
6,MLPQSSSRQLRVGCASLCNM,-0.148 ± 0.6
7,RMDSRKGTNNKSFSGGLEYR,-0.366 ± 0.32
8,HLCVTTGSSLL,-0.58 ± 0.98
9,LFVGWYYYSVFSFV,inactive
10,WSRTNMIYNPSVGAIYRV,-0.021 ± 0.41
11,AFSSLTC,-0.087 ± 1
12,VVSMSQEVEAPRAPHMAAFK,0.25 ± 0.53
13,TLGPAWNVKFAWVFSFLVCI,0.933 ± 0.7
14,DKTGLGRRGPIIFSLSFRWS,-1.55 ± 1.4
15,ATKSLRIYLARVMHETSTFG,-0.822 ± 0.61
16,WIFQY,1.43 ± 0.72
17,VILFYSR,4.49 ± 0.11
18,NCYMT,0.386 ± 0.31
19,YLQVGASADWKLTYSGSGNV,2.72 ± 0.23
20,IPGGLNKERPYWYCTQMAGT,1.25 ± 0.55
21,LDILMGGGHTEDCTLPGHLS,0.307 ± 0.36
22,MIRPVFLVFVYMLFCLGNCT,0.383 ± 0.28
23,DPSPLR,-0.827 ± 2.4
24,STVFNGSGGEDVKKCPPHA,inactive
25,AHIISIKYLGSIFNKRRRFA,0.874 ± 0.66

row,Substance,amyloid nucleation score
1,TVRGSAFLIKWKLI,-0.86 ± 0.9
2,TIVSDGAQDFQHHS,inactive
3,QCVRLDVTT,-2.14 ± 2.1
4,NSVIWRMG,1.42 ± 0.3
5,IYAGHRQHGAV,-0.386 ± 0.55
6,DDTDLVLVMRRSIVERGMRE,0.437 ± 0.39
7,WCTATGVSRFTMGIKTCHCL,0.738 ± 0.38
8,FFALIYI,0.357 ± 0.36
9,REGWLITWRFNSW,inactive
10,WFEVNSACQLSNLGGLTEFR,-0.417 ± 1.4
11,WSVLCSFRSSSNQAFVFRVQ,-0.827 ± 0.77
12,GLEDRNRWKVWFITLCRGIA,0.71 ± 1.1
13,FNVKSSMRNPGCIPWHRATY,-0.616 ± 1.7
14,SDMLYLQLVKLASWFHFNLK,-0.199 ± 0.38
15,NLMYAGIRLKGEICTNQVSF,0.371 ± 0.16
16,YGLIGM,0.24 ± 0.37
17,FRFSGHWGETIASRTG,0.376 ± 0.95
18,EDNWHLRVQ,0.088 ± 0.29
19,TKWLLFLVRTRHVMMCGGVM,inactive
20,SSWQGLRNLHGSYEDQINVK,4.17 ± 0.073
21,RARQNAFREW,-0.301 ± 0.35
22,NDRKYLCMMRILMSNRRVLQ,0.553 ± 0.3
23,TFVLYGCDRKVFRRNVVTAS,0.316 ± 0.35
24,HSVIIALRGCIRIG,2.25 ± 0.15
